Substitutions are numbered along the chain they refer to. Names may count otherwise. “Also recorded” adds a separate entry of the source.
Assays:
colicin E7 = molecular target: T1, colicin E7 (Escherichia coli, UniProt Q47112); details: in words; listed as Im7; cited from earlier work
T1 sequence (Q47112 1-576): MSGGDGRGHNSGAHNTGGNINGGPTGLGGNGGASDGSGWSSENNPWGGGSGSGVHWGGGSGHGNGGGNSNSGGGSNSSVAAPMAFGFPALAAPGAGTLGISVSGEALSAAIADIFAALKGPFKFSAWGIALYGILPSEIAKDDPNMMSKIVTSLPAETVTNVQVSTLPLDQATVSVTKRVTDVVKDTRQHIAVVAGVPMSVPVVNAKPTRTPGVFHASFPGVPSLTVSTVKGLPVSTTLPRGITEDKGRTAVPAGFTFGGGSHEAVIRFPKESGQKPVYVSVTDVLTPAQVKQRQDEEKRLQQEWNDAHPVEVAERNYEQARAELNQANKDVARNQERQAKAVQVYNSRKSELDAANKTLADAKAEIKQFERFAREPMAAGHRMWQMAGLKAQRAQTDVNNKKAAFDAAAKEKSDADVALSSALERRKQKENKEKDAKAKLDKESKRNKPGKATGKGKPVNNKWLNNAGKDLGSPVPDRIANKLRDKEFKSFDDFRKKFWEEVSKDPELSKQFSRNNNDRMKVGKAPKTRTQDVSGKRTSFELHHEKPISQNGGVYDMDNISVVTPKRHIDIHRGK

[1] = Equilibrium unfolding experiments (urea denaturation, folding free energy); assay type: physicochemical
Procedure: Proteins were dissolved to a concentration of approximately 100 μM in 50 mM Tris-Cl buffer at pH 7.5, containing 400 mM Na2SO4. Substocks of each mutant were made up in the same buffer containing 0, 2, 4, 6 and 8 M urea. These substocks were titrated into a black polypropylene 384 well microtitre plate (Greiner) to create eight replicates of a urea titration from 0 to 8 M urea in steps of 0.2 M urea, using a Hamilton Microlab Star robot. The plates were briefly centrifuged and incubated at 37° C. for one hour to allow the unfolding reaction to come to equilibrium. The tryptophan fluorescence of each sample was measured using a PerkinElmer EnVision platereader. The excitation wavelength was 280 nm and emission was measured using a 340-350 nm filter. Data were normalized and processed using Igor Pro (Wavemetrics). The entire dataset was fitted globally to a two-state equilibrium unfolding equation and the ΔG values for each Im7 variant were compared to that of the wildtype protein under identical conditions. ΔΔGUN=ΔGUN(mutant)−ΔGUN(wildtype)

[2] = wild type protein; in words; cited from earlier work

B1: Wildtype Im7: small helical protein that confers immunity to bacterial colicin E7 (protein)
chain: MELKNSISDYTEAEFVQLLKEIEKENVAATDDVLDVLLEHFVKITEHPDGTDLIYYPSDNRDDSPEGIVKEIKEWRAANGKPGFKQG
affinity for colicin E7 (colicin E7): binds very tightly; also recorded: picomolar affinity

B2: N26K: Im7 variant more stable than Im7 wt, in Kan55-Im7 (protein)
chain: B1 chain with N26K
stability of Im7 variant relative to Im7 wt [1]: more stable

B3: G-CSF: granulocyte-colony stimulating factor, sold under the trademark names Neopogen and Neulasta (protein, UniProt P09919 31-207, looked up)
Granulocyte …: TPLGPASSLPQSFLLKCLEQVRKIQGDGAALQEKLVSECATYKLCHPEELVLLGHSLGIPWAPLSSCPSQALQLAGCLSQLHSGLFLYQGLLQALEGISPELGPTLDTLQLDVADFATTIWQQMEELGMAPALQPTQGAMPAFASAFQRRAGGVLVASHLQSFLEVSYRVLRHLAQP
tendency to aggregate [2]: high tendency to aggregate

— patent US8986997B2, “Methods and compositions for increasing biological molecule stability” (The Regents of the University of Michigan, priority 2007, dated 2015)
